As usually defined, the Kd is the equilibrium constant for the complex coming apart. Low readings indicate higher affinity, high ones lower affinity.

One experiment addresses CAR on CHO-CAR cells (UniProt P78310). In words: flow cytometry on cells; CHO-CAR cells with serial dilutions of knob protein (0.0001-100 ug/10^5 cells) for 1 h on ice, washed, then stained for CAR with anti-CAR (RmcB) and a labelled secondary antibody; IC50 by non-linear regression; apparent.
Experiment [1] deals with human CXADR Fc chimera protein (CAR) (human) (UniProt P78310). In words: SPR; BIAcore 3000; DSG2-Fc, CAR-Fc and CD46-His (approximately 500 RU) coupled to a CM5 chip; knob protein injected (178 uM, 5x 1:3 dilutions; single-cycle kinetics from 200 uM); 30 uL/min, PBS, 25 °C; equilibrium KD assuming 1:1 Langmuir binding. (In general: Surface plasmon resonance follows binding to a sensor surface in real time, without labels.)
Sequence of human CXADR Fc chimera protein (CAR) (human) (P78310 20-237, change not shown): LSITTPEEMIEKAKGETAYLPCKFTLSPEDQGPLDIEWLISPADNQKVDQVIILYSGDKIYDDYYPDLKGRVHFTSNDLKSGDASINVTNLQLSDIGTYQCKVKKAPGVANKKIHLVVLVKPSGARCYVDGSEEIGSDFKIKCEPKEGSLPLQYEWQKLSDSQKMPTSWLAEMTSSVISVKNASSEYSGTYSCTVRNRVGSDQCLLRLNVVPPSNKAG

Experiment [2] concerns the target human CD46 protein (His tag) (human) (UniProt P15529). The experiment is described as above.
Experiment [3] concerns the target Human desmoglein-2 Fc chimera protein (DSG2) (human) (UniProt Q14126). The description is as above.

Sequence of Human desmoglein-2 Fc chimera protein (DSG2) (human) (Q14126 50-609, change not shown): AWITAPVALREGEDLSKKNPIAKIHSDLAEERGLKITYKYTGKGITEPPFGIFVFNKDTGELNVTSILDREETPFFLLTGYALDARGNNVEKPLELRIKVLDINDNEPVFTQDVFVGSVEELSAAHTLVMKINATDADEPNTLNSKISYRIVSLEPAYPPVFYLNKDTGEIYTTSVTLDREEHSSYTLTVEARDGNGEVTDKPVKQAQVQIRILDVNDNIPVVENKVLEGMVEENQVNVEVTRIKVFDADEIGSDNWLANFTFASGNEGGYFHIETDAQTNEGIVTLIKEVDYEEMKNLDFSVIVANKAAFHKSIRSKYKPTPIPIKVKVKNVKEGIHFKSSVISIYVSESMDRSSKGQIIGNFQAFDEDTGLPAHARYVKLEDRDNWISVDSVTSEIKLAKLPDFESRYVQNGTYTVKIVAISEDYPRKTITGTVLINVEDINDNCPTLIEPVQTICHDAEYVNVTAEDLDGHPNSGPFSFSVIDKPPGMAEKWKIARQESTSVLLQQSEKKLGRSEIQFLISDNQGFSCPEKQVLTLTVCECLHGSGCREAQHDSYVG
Sequence of CAR on CHO-CAR cells (P78310 20-365): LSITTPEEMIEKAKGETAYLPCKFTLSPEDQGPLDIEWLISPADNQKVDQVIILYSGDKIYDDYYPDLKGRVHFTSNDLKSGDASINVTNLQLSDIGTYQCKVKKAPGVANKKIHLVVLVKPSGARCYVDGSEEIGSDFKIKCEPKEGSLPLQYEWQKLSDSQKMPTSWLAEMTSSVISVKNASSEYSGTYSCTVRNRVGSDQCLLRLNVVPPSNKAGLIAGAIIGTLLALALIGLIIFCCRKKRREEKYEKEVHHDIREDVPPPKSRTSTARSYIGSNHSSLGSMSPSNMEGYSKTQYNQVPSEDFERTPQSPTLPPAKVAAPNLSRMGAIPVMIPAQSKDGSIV
Sequence of human CD46 protein (His tag) (human) (P15529 35-343): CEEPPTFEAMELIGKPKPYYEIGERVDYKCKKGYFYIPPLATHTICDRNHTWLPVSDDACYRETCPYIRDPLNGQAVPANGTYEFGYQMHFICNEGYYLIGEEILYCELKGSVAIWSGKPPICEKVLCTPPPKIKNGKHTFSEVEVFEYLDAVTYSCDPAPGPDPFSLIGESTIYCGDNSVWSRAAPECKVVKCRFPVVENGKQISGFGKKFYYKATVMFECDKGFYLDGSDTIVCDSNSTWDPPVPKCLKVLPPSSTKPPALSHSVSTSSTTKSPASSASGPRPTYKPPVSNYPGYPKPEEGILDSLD

Turning to “HAdV-D10 fiber knob protein (domain or fragment)”, the fold lower apparent affinity than HAdV-C5K (by IC50) with CAR on CHO-CAR cells worked out at 16.5 fold. For the same substance, the Kd worked out at 0.44 µM in experiment [1], 20 µM in experiment [2] and 125 µM in experiment [3].

(Values after publication PMC8971729.)
